Here are results for one molecule from PMC7954600.

For this assay, the target named is complex I-containing supercomplex (human (endogenous in fibroblasts and HEK293)) (UniProt P56181). Description: complexome profiling (blue native electrophoresis with mass spectrometry); mitochondria-enriched membranes of control fibroblast and control HEK293 cells, solubilised with detergent (digitonin for supercomplexes), 3% to 18% acrylamide blue native gel, gel bands or slices read by quantitative mass spectrometry; co-migration.
Chain of UniProt P56181 (P56181 whole entry, looked up, one chain of several): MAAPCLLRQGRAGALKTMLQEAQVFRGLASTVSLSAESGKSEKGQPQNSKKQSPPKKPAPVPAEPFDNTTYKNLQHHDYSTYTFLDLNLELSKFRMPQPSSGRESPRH

B1: DNAJC30 (natural protein)
chain: SQGDCSYSRTALYDLLGVPSTATQAQIKAAYYRQCFLYHPDRNSGSAEAAERFTRISQAYVVLGSATLRRKYDRGLLSDEDLRGPGVRPSRTPAPDPGSPRTPPPTSRTHDGSRASPGANRTMFNFDAFYQAHYGEQLERERRLRARREALRKRQEYRSMKGLRWEDTRDTAAIFLIFSIFIIIGFYI
For the molecule B1, the ratio DNAJC30/complex I in the supercomplex (DNAJC30/complex I) is 0.005.
